Measurements taken from patent US20250180582A1 (XIAMEN INNOBIOMAX BIOTECHNOLOGY, published 2025).

T1: pET-32a-GPR37-1-613 full-length antigen (human, UniProt O15354 27-613)
T1 construct: Expressed in Escherichia coli from pET-32a and purified; also called Antigen 1; not shown: fusion partner/tags encoded by the pET-32a vector
T1 sequence: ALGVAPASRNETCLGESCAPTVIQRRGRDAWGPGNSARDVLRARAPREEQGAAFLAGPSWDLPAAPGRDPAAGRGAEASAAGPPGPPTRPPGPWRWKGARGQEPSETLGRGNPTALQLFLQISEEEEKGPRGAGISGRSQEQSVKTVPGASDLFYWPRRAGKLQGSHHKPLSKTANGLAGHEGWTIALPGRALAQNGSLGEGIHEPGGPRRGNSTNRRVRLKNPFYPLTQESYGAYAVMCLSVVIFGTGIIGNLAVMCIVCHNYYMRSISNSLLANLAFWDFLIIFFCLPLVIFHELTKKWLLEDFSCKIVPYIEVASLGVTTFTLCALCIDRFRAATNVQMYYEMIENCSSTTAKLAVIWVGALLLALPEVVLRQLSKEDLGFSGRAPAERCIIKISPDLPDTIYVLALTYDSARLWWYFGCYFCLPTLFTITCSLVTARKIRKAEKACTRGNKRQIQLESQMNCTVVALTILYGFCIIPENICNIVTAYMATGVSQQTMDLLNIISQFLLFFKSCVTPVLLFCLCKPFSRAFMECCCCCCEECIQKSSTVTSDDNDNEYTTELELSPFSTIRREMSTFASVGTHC

T2: pCold-TF-GPR37-1-613 full-length antigen (human, UniProt O15354 27-613)
T2 construct: Target fragment of Antigen 1 moved into the pCold-TF expression vector; also called Antigen 2; not shown: TF fusion partner encoded by the pCold-TF vector
T2 sequence: T1 sequence

T3: pCold-TF-GPR37-1-265 extracellular segment protein (human, UniProt O15354 27-265)
T3 construct: also called Antigen 3; not shown: TF fusion partner encoded by the pCold-TF vector
T3 sequence: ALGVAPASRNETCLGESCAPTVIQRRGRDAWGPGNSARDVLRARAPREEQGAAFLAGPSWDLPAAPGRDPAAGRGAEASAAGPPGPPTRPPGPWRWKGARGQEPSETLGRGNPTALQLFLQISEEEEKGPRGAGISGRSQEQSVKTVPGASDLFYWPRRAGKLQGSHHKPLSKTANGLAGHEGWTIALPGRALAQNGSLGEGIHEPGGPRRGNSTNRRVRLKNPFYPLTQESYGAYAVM

B1: monoclonal antibody 6D2 (antibody, IgG2a, V domains shown)
VH: EVMLVESGGGLVKPGGSLKLSCAASGFIFSSQAMSWVRQIPEKRLEWVATISSGGSYTYYPDSVKGRFTISRDNAKNTLYLQMSSLTSEDTAMYYCARQRDFGRYYGYDPFFDFWGQGTTLTF
VL: EIVLTQSPTTMAASPGEKITITCSASSSISSNYLHWYQQKPGFSPKLLIYRTSNLPSGVPARFSGSGSGTSYSLTIGTMEAEDVATYYCQQGSSVPRITFGAGTKLE
notes: Mouse hybridoma antibody; also called mAb 6D2
B2: monoclonal antibody 5A2 (antibody, IgG2a, V domains shown)
VH: EVKLVESGGGLVQPGGSLRLSCATSGFIFSDYYMSWVRQPPGKALEWLGYIRNKAKRYTTEYNASVKGRFTISRDNSQNILYLQMNTLRAEDSATYYCARDTSDYDRFAYWGQGTLVTVSA
VL: DIVMTQTPLSLPVSLGDHASLSCKSSQSLVHRNGNTYLHWFLQKPGQSPKLLIYKVSNRFSGVPDRFSGSGSGTDFTLKISRVEAADLGVYFCSQSTLLPYTFGGGTKLEIK
notes: Mouse hybridoma antibody; also called mAb 5A2; 5A2-HRP

Assays:
Assay in all cases: indirect ELISA, cell supernatant, antigen coated 200 ng/mL
[1] = target: T1, pET-32a-GPR37-1-613 full-length antigen
Procedure: (§1) 3.6 Screening of hybridomas: Antigen 1 was used for primary screening, and two antigens that were also fused to pET-32a were used as accessory means for differential screening, in which both antigens were from Inbermax (Catalog No.: E11024, Catalog No.: E1212), and the self-made recombinant Antigen 2 and Antigen 3 were used at the same for identification. The screening method was an indirect ELISA, and its specific steps comprised: the plate was coated with the antigen at 200 ng/mL, 100 ul per well, added with 50 μL of cell supernatant, incubated at 37° C. for 30 minutes, washed 5 times with a plate washer, added with 100 ul of GAM-HRP prepared at 1:5K, incubated at 37° C. for 30 minutes, washed 5 times with a plate washer, added with a chromogenic solution at 100 ul/well, incubated at 37° C. for 15 minutes, added with a stop solution to terminated the reaction, and placed in a microplate reader to read signal values using dual wavelengths. Based on the experimental results, the cells in the corresponding positive wells were selected for the next step work.
(§2) 3.7 Cloning of hybridoma cells: Using the limiting dilution method, the cells were first diluted in gradient at certain concentrations, and then inoculated into each well of a 96-well cell culture plate, so that only one cell grew in the well as much as possible. The hybridoma monoclonal positive cell line was repeatedly cloned at least 3 times, and were confirmed as a stable clone after the final round was 100% positive. The positive standards were as described in 3.6.

[2] = target: T4, antigen fused to pET-32a from Inbermax, Catalog No.: E11024
T4 construct: Used for differential screening against the pET-32a fusion part
Procedure: as §1, §2

[3] = target: T5, antigen fused to pET-32a from Inbermax, Catalog No.: E1212
T5 construct: Used for differential screening against the pET-32a fusion part
Procedure: as §1, §2

[4] = target: T2, pCold-TF-GPR37-1-613 full-length antigen
Procedure: as §1, §2

[5] = target: T3, pCold-TF-GPR37-1-265 extracellular …
Procedure: as §1, §2

Binder | ELISA signal [1] | ELISA signal [2] | ELISA signal [3] | ELISA signal [4] | ELISA signal [5]
B1 | 3.37 OD | 0.009 OD | 0.01 OD | 2.81 OD | 3.54 OD
B2 | 2.83 OD | 0.008 OD | 0.011 OD | 6.24 OD | 3.37 OD
